Data taken from PMC6326545.

Molecular target: rat TRPV1 ion channel (rat) (UniProt O35433)
Chain of UniProt O35433 (O35433 whole entry): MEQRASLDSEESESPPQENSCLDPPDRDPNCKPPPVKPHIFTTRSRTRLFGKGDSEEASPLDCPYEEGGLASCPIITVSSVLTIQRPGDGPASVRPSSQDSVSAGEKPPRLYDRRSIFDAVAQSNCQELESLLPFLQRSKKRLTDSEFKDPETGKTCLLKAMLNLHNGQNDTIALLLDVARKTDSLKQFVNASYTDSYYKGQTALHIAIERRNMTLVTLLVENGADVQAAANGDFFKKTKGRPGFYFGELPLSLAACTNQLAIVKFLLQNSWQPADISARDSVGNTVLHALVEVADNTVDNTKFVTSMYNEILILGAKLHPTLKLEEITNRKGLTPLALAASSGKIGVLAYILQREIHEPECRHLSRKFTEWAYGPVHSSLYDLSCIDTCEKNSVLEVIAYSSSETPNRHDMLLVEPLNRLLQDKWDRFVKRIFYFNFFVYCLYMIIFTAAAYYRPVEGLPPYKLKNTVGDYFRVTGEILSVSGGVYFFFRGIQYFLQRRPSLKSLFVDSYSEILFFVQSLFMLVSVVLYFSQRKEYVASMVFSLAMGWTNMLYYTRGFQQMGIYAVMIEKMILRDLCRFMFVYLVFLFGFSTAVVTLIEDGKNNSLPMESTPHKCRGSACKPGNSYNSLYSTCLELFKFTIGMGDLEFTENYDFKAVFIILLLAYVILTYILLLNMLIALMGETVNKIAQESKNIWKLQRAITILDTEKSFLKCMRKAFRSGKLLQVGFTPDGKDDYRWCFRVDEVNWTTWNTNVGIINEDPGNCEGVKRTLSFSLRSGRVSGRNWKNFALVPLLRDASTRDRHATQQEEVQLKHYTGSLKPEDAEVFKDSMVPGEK

Row | Substance | EC50 of TRPV1 activation (two-electrode voltage clamp, oocytes), fold over wild-type DkTx (fold over wild-type DkTx)
1 | DkTx V8A (natural protein) | 16
2 | DkTx E7A (natural protein) | 11
